Assay results reported in patent US20180346544A1.

Biological target: CD276.MG.BB.z CAR (SEQ ID NO: 12)
Assay: flow cytometry, Protein L staining of T cells cultured with CD276.MG.BB.z vector supernatant; the mock-transduced panel gives 2.56

Chain of CD276.MG.BB.z CAR (SEQ ID NO: 12) (chain, as listed by the source, form in doubt): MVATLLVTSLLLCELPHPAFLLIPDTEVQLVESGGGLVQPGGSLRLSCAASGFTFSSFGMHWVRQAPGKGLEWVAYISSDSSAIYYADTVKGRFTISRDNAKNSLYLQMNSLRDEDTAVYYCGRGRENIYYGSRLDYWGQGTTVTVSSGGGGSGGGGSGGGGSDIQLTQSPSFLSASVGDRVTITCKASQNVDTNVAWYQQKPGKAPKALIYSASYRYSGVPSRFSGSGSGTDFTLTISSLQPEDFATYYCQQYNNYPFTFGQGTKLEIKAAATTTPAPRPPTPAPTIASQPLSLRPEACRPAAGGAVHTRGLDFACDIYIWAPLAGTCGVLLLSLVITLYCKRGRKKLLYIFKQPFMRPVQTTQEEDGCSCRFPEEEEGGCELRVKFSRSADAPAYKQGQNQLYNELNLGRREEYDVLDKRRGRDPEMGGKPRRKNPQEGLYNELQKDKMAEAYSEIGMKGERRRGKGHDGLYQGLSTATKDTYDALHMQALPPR

value of the horizontal bar in the flow cytometric histogram (Protein L staining): 54.7
Substance: Protein L
